In test [1] the target is Campath-1 antigen (partially purified, obtained from a glycolipid extract from human spleen) (human) (UniProt P31358). The test is described as follows: direct binding ELISA, partially purified Campath-1 antigen coated on wells, detected with biotin anti-rat IgG2b; antibody concentration at 50% maximal binding.
Test [2] shares this target. Put plainly: cell-based or functional assay.

For 3 substances, EC50 and Concentration of antibody in ug/ml results are on record in patent US6569430.

In general, EC50 refers to the concentration that produces a half-maximal response. “HuVHCAMP-RaIgG2B with rat kappa light chain of YTH 34.5HL (antibody)” registered an EC50 in test [1] of 27.3 µg/mL. The substance “HuVHCAMP(Ser27 to Phe)-RaIgG2B with rat kappa light chain of YTH 34.5HL (antibody)” gave a Concentration of antibody in ug/ml at 50% lysis (complement lysis of human lymphocytes with human serum) in test [2] of 16.3 µg/mL. The substance further registered an EC50 in test [1] of 1.8 µg/mL. Turning to “HuVHCAMP(Ser27 to Phe, Ser30 to Thr)-RaIgG2B with rat kappa light chain of YTH 34.5HL (antibody)”, in test [2], the Concentration of antibody in ug/ml at 50% lysis (complement lysis of human lymphocytes with human serum) came to 17.6 µg/mL. In addition, in test [1], the EC50 was determined as 2 µg/mL.
